{"source": "patent US20110046075A1", "about": "(published 2011)", "binders": {"B1": {"name": "Efb-C, C-terminal C3-binding domain of Efb from S. aureus strain Mu50 (other)", "chain": "FNKPAAKTDATIKKEQKLIQAQNLVREFEKTHTVSAHRKAQKAVNLVSFEYKVKKMVLQERIDNVLKQGLVR", "notes": "Monomer in solution; also called wild-type Efb-C"}, "B2": {"name": "Extracellular fibrinogen-binding protein (Efb), recombinant full-length, S. aureus strain Mu50 (other)", "chain": "ASEGYGPREKKPVSINHNIVEYNDGTFKYQSRPKFNSTPKYIKFKHDYNILEFNDGTFEYGARPQFNKPAAKTDATIKKEQKLIQAQNLVREFEKTHTVSAHRKAQKAVNLVSFEYKVKKMVLQERIDNVLKQGLVR"}, "B3": {"name": "SAV1155/Ehp (Efb Homologous Protein), recombinant mature form, S. aureus strain Mu50 (other)", "chain": "QTKNVEAAKKYDQYQTNFKKQVNKKVVDAQKAVNLFKRTRTVATHRKAQRAVNLIHFQHSYEKKKLQRQIDLVLKYNTLK", "notes": "A recombinant form corresponding to the predicted mature protein"}}, "key": {"[1]": {"biological_target": "T1, Native complement component C3, purified from human plasma (human, UniProt P01024 23-1663, intact thioester (native form))", "T1 sequence (P01024 23-1663)": "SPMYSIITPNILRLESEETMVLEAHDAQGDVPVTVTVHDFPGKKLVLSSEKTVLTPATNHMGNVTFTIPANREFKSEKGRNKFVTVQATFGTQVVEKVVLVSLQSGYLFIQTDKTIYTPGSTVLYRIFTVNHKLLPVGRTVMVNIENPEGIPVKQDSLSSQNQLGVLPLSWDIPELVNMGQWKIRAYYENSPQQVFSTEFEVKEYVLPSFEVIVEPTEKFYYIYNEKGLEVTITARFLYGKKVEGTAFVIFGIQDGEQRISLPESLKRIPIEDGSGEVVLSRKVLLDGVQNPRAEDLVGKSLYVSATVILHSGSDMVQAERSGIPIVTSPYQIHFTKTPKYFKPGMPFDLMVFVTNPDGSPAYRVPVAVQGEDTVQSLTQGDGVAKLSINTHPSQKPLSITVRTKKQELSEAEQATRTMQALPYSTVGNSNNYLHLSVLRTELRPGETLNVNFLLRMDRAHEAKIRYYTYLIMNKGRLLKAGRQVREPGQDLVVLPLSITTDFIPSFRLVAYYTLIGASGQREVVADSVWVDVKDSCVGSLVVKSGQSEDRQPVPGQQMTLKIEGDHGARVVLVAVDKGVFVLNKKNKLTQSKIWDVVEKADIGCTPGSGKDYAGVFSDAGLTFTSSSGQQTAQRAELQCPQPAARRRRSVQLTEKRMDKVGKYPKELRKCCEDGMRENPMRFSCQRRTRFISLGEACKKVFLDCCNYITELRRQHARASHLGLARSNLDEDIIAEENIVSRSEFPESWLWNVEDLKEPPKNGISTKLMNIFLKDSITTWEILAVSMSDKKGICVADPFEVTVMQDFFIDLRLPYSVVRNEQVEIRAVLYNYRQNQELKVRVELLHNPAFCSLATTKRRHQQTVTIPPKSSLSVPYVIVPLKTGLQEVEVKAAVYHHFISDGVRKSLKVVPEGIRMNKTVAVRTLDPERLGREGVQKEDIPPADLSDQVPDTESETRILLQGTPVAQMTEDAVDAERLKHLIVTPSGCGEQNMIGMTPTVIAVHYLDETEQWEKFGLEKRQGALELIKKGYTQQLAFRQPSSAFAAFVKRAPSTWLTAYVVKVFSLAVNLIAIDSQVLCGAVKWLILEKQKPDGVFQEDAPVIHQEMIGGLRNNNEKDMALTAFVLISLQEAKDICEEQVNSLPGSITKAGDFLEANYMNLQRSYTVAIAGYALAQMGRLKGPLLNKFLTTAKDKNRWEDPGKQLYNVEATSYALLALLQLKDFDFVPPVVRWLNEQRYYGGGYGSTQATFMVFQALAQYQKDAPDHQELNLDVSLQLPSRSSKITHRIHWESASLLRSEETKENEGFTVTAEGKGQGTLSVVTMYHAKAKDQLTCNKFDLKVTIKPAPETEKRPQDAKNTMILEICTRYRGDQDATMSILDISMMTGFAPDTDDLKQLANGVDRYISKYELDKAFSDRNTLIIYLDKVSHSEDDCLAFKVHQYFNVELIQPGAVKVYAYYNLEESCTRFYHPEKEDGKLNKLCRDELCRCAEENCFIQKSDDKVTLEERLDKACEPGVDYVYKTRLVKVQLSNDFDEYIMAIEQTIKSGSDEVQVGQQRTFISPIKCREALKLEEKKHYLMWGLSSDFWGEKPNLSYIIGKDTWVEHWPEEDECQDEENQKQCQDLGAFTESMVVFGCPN", "assay": "cell-based or functional assay"}, "Hydrolyzed C3 (C3(H2O)) [2]": {"biological_target": "T2, Hydrolyzed C3 (C3(H2O)) (human, UniProt P01024 23-1663, thioester hydrolyzed)", "T2 construct": "mature; Prepared according to established protocols", "T2 sequence (P01024 23-1663)": "as above", "assay": "SPR kinetics, Efb-C immobilized"}, "C3b [3]": {"biological_target": "T3, C3b (human, UniProt P01024 23-667; P01024 749-1663, limits assumed)", "T3 construct": "domain: C3b; Prepared according to established protocols", "T3 sequence (P01024 23-667 limits assumed, chain 1 of 2)": "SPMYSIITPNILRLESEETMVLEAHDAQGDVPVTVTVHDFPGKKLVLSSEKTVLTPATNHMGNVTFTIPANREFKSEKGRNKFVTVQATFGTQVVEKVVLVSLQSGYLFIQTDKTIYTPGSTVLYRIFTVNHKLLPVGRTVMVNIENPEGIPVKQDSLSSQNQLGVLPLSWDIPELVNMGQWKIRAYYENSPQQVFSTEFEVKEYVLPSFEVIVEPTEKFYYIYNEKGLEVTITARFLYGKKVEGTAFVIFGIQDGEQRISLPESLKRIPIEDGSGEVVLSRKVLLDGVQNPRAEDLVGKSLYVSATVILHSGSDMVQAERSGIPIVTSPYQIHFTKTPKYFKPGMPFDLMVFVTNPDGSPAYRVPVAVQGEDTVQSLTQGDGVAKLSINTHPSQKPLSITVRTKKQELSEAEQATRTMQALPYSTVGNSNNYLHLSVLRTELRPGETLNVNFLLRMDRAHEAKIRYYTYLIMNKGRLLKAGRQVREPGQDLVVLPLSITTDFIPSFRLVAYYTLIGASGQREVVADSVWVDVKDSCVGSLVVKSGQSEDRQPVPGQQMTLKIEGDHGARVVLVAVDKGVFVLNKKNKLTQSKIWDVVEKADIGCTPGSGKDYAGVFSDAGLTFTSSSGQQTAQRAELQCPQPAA", "T3 sequence (P01024 749-1663 limits assumed, chain 2 of 2)": "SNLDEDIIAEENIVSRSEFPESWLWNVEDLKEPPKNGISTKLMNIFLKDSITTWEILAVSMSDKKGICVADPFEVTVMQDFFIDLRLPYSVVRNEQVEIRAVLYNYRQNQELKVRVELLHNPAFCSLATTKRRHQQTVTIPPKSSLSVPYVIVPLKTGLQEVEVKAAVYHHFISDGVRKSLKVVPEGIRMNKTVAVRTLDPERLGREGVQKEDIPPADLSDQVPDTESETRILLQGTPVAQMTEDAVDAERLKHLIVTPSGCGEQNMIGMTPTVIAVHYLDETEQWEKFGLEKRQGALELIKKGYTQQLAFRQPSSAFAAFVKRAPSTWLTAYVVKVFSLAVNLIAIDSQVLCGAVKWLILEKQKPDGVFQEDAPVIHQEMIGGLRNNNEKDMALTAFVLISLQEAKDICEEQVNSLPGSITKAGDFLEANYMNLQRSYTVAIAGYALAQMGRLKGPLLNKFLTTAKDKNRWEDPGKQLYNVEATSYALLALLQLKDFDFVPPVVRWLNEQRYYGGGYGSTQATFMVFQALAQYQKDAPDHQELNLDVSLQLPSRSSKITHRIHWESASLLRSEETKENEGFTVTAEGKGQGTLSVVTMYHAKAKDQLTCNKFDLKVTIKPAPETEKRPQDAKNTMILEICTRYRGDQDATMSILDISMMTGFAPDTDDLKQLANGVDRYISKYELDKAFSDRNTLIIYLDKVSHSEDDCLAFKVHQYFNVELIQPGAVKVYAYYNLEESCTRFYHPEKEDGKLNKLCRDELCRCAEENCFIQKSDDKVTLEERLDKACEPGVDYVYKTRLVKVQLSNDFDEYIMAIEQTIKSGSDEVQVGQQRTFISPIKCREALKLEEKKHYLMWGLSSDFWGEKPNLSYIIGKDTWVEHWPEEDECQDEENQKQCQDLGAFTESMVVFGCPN", "assay": "SPR kinetics, Efb-C immobilized"}, "C3c": {"biological_target": "T4, C3c (human, UniProt P01024 23-667; P01024 749-954; P01024 1321-1663)", "T4 construct": "domain: C3c; Prepared according to established protocols; also called C3c fragment", "T4 sequence (P01024 23-667 limits assumed, chain 1 of 3)": "as the sequence (P01024 23-667 limits assumed, chain 1 of 2) above", "T4 sequence (P01024 749-954 limits assumed, chain 2 of 3)": "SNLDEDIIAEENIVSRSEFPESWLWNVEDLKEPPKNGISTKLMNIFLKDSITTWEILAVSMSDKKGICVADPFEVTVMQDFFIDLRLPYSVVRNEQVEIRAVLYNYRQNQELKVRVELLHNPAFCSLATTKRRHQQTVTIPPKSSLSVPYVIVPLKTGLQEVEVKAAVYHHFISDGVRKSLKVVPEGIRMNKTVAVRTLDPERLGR", "T4 sequence (P01024 1321-1663 limits assumed, chain 3 of 3)": "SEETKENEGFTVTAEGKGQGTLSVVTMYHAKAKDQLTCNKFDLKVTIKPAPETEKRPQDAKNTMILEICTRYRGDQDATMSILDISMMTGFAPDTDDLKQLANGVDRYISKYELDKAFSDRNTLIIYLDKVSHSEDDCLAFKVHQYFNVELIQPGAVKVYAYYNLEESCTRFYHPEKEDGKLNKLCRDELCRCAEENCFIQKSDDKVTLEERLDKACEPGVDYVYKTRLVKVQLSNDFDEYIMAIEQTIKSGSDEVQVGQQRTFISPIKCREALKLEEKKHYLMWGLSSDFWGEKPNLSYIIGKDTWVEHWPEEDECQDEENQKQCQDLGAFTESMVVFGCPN", "assay": "SPR, Efb-C immobilized, C3c injected, response divided by MW"}, "[4]": {"biological_target": "T5, Fibrinogen (Fg) from human serum (human, UniProt P02671 20-644; P02675 31-491; P02679 27-437)", "T5 construct": "The three-chain make-up is from general knowledge; also called Fg species", "T5 sequence 1": "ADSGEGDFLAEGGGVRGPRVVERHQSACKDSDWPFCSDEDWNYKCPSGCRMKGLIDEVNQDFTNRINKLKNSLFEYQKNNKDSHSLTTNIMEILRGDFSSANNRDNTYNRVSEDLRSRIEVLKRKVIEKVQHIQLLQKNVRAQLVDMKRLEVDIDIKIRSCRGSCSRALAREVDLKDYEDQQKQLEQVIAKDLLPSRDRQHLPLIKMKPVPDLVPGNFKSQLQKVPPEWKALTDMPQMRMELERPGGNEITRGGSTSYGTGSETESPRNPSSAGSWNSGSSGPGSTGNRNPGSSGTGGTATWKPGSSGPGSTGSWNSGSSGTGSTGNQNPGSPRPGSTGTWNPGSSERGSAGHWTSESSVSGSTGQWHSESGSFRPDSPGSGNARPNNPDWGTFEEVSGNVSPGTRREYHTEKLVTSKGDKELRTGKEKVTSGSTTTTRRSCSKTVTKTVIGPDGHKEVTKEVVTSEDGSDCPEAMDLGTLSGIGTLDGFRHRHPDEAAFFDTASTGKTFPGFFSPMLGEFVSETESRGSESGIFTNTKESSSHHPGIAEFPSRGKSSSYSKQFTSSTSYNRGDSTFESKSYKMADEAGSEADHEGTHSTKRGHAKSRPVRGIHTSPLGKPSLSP", "T5 sequence 2": "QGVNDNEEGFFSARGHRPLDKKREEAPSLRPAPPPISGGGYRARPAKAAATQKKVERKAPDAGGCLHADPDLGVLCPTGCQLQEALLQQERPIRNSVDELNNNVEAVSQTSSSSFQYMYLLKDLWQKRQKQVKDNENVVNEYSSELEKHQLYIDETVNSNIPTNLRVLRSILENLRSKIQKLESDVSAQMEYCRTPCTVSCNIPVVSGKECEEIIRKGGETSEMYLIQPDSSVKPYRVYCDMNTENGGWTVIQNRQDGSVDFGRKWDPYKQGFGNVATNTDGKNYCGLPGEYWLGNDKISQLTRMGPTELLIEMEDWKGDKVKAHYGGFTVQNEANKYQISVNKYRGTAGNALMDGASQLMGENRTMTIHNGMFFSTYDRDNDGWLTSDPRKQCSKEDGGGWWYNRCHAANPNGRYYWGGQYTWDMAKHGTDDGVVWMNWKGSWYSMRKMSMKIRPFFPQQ", "T5 sequence 3": "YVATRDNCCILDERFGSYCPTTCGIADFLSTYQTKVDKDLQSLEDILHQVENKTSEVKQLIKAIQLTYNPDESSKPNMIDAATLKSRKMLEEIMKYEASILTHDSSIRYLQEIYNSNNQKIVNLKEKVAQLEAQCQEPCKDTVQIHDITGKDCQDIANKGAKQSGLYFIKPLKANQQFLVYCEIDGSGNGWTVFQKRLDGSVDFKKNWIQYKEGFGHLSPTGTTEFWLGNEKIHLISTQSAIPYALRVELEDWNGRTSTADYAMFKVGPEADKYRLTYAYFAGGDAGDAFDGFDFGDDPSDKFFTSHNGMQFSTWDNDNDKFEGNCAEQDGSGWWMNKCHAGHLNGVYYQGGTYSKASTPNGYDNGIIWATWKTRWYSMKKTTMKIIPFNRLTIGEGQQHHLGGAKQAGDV", "assay": "pull-down from human serum on derivatized sepharose, SDS-PAGE and LC-MS/MS"}, "C3b [5]": {"biological_target": "T3, C3b", "assay": "SPR (Biacore 2000), Efb-C immobilized, C3b as analyte, 1:1 Langmuir model", "description": "(§1) Surface Plasmon Resonance of Efb Binding to Components of the Complement System. All SPR experiments were performed on a Biacore X (ranking) or Biacore 2000 (kinetic profiling) biosensor at 25° C. using 10 mM PBS-T (10 mM sodium phosphate, pH 7.4, 150 mM NaCl, 0.005% Tween-20) as running buffer. […] A separate flow cell was only activated and deactivated, and served as reference surface. 200 nM solutions of the C3 fragments were injected for 3 min at a flow rate of 20 μl/min with a dissociation phase of 3 min. The Efb-C surface was regenerated with two consecutive 30 s pulses of 0.1% SDS and re-equilibrated in running buffer for 10 min. For the kinetic SPR studies, Efb-C was immobilized at lower density (200 RU) and the flow rate was kept at 30 μl/ml in order to avoid mass transport effects. C3 fragments were screened as threefold dilution series (67-0.09 nM; 200-0.09 nM for C3b) in running buffer with injection and dissociation phases of 5 and 10 min, respectively. In order to ensure full reconstitution of the surface after regeneration, the equilibration phase was increased to 30 min. Three buffer blanks were included in each analysis and their average signals were subtracted from the processed sample responses (double referencing). […] The equilibrium dissociation constant (Kd) was calculated from the kinetic parameters as Kd=koff/kₒₙ. […]"}, "[6]": {"biological_target": "T6, Recombinant C3dg (E. coli, pET30 vector with S-tag) (human, UniProt P01024 955-1303)", "T6 construct": "domain: C3dg; not shown: S-tag from the pET30 vector", "T6 sequence (P01024 955-1303)": "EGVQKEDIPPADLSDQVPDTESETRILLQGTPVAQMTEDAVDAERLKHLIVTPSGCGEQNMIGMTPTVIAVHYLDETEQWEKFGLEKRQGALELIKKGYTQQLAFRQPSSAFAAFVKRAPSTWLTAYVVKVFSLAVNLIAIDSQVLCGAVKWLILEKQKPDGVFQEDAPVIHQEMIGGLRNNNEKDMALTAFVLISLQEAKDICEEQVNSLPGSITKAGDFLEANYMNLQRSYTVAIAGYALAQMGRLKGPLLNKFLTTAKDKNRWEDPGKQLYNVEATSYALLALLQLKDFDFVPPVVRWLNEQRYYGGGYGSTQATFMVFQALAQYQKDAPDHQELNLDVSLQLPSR", "assay": "SPR (Biacore 2000), Efb-C immobilized, C3dg as analyte, 1:1 Langmuir model"}, "Hydrolyzed C3 (C3(H2O)) [7]": {"biological_target": "T2, Hydrolyzed C3 (C3(H2O))", "assay": "SPR (Biacore 2000), Efb-C immobilized, C3(H2O) as analyte, 1:1 Langmuir model", "description": "as §1"}, "C3b [8]": {"biological_target": "T3, C3b", "assay": "SPR (Biacore 2000), Efb-C immobilized, C3b as analyte, 1:1 Langmuir model; Kd=koff/kon"}, "[9]": {"biological_target": "T6, Recombinant C3dg (E. coli, pET30 vector …)", "assay": "SPR (Biacore 2000), Efb-C immobilized, C3dg as analyte, 1:1 Langmuir model; Kd=koff/kon"}, "Hydrolyzed C3 (C3(H2O)) [10]": {"biological_target": "T2, Hydrolyzed C3 (C3(H2O))", "assay": "SPR (Biacore 2000), Efb-C immobilized, C3(H2O) as analyte, 1:1 Langmuir model; Kd=koff/kon"}, "[11]": {"biological_target": "T1, Native complement component C3, …", "assay": "SPR (Biacore 2000), Efb-C immobilized, native C3 as analyte, surface heterogeneity model, primary site; Kd=koff/kon"}, "[12]": {"biological_target": "T1, Native complement component C3, …", "assay": "SPR (Biacore 2000), Efb-C immobilized, native C3 as analyte, surface heterogeneity model, primary site (~90% of the total binding)"}}}
{"binder": "B1", "values": [{"measurement": "IC50, inhibition of the alternative pathway of complement activation (ELISA of C3b deposition, human serum)", "setting": "[1]", "result": "~410", "unit": "nM"}, {"measurement": "dissociation rate relative to that of native C3", "setting": "Hydrolyzed C3 (C3(H2O)) [2]", "result": "> 70", "unit": "% greater"}, {"measurement": "fold decrease in affinity compared to native C3 and C3(H2O)", "setting": "C3b [3]", "result": "~3", "unit": "fold"}, {"measurement": "fold difference in affinity to C3dg", "setting": "C3b [3]", "result": "~10", "unit": "fold"}, {"measurement": "binding result", "setting": "C3c", "result": "no binding (tested: 200 nM)"}, {"measurement": "binding result", "setting": "[4]", "result": "no binding (tested: 1:100 dilution of human serum)"}, {"measurement": "koff", "setting": "C3b [5]", "result": 0.000209, "unit": "s⁻¹"}, {"measurement": "kon", "setting": "C3b [5]", "result": 23900, "unit": "M⁻¹ s⁻¹"}, {"measurement": "koff", "setting": "[6]", "result": 0.000218, "unit": "s⁻¹"}, {"measurement": "kon", "setting": "[6]", "result": 284000, "unit": "M⁻¹ s⁻¹"}, {"measurement": "koff", "setting": "Hydrolyzed C3 (C3(H2O)) [7]", "result": 0.000169, "unit": "s⁻¹"}, {"measurement": "kon", "setting": "Hydrolyzed C3 (C3(H2O)) [7]", "result": 88900, "unit": "M⁻¹ s⁻¹"}, {"measurement": "Kd", "setting": "C3b [8]", "result": 8.8, "unit": "nM"}, {"measurement": "Kd", "setting": "[9]", "result": 0.8, "unit": "nM"}, {"measurement": "Kd", "setting": "Hydrolyzed C3 (C3(H2O)) [10]", "result": 1.9, "unit": "nM"}, {"measurement": "Kd", "setting": "[11]", "result": 2.8, "unit": "nM"}, {"measurement": "koff", "setting": "[12]", "result": "9.9e-05", "unit": "s⁻¹"}, {"measurement": "kon", "setting": "[12]", "result": 36000, "unit": "M⁻¹ s⁻¹"}]}
{"binder": "B2", "values": [{"measurement": "IC50, inhibition of the alternative pathway of complement activation (ELISA of C3b deposition, human serum)", "setting": "[1]", "result": "~560", "unit": "nM"}, {"measurement": "molar excess over C3 needed to reach an IC50 concentration, classical pathway", "setting": "[1]", "result": 50, "unit": "fold molar excess over C3"}]}
{"binder": "B3", "values": [{"measurement": "IC50, inhibition of classical activation of the complement pathway (ELISA detecting fixed C3b to Ag-Ab complex)", "setting": "[1]", "result": 590, "unit": "nM"}, {"measurement": "classical pathway inhibition relative to Efb, on a molar basis", "setting": "[1]", "result": "~2", "unit": "fold"}, {"measurement": "classical pathway inhibition relative to Efb-C, on a molar basis", "setting": "[1]", "result": "~50", "unit": "fold"}, {"measurement": "binding result", "setting": "[4]", "result": "no binding (tested: 1:100 dilution of human serum)"}]}
